Experiments:
2XMBP-BRC1-4-DBD = molecular target: T1, 2XMBP-BRC1-4-DBD (Homo sapiens, UniProt P51587;P51587 993-1589;2153-3418); test: EMSA
T1 chain 1: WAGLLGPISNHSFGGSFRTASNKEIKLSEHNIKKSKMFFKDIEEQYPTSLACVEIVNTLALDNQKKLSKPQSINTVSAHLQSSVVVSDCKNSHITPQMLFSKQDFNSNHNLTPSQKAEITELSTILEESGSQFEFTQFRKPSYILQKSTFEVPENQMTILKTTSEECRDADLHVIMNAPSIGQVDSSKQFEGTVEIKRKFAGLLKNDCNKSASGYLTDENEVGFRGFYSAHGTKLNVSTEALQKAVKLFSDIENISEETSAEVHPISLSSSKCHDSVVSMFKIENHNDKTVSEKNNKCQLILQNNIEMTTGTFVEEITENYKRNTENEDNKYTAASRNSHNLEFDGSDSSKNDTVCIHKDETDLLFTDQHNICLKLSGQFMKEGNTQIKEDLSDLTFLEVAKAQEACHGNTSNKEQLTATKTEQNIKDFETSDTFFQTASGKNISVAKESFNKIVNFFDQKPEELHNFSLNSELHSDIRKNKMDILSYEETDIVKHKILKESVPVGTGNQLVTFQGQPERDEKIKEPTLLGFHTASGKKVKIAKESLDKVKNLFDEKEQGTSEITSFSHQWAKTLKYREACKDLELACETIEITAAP
T1 chain 2: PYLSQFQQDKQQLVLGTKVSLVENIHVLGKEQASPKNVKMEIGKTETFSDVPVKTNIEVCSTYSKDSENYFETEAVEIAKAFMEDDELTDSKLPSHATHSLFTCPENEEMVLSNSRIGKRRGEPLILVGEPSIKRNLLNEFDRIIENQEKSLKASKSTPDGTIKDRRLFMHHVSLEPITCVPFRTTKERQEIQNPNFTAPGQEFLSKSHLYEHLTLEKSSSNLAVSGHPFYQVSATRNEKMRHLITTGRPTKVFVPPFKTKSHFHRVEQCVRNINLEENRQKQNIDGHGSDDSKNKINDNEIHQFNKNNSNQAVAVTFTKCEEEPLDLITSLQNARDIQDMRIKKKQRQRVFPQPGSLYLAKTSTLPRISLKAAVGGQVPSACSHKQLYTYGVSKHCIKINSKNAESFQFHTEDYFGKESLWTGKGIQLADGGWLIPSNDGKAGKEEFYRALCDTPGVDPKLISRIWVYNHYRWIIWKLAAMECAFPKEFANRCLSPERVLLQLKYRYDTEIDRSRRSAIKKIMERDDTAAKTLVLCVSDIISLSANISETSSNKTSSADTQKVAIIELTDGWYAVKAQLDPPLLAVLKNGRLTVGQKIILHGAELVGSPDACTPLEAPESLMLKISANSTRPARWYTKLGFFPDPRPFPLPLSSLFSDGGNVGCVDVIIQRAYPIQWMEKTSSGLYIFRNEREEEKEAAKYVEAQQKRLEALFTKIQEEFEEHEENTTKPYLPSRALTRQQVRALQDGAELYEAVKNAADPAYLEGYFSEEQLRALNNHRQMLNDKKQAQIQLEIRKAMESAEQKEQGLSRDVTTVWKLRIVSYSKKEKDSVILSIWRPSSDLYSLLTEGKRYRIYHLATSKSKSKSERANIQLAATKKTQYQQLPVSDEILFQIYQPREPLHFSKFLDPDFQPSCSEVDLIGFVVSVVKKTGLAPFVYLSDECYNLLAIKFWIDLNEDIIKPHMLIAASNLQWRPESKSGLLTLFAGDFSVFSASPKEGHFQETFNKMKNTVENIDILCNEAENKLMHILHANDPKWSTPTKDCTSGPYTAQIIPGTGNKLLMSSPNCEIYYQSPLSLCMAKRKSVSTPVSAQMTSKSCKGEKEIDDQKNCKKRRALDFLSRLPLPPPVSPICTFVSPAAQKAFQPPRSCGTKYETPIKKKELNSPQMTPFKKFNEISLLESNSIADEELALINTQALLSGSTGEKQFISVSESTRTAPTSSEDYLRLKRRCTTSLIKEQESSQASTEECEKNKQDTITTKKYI

2XMBP-BRC5-8-DBD = 2XMBP-BRC5-8-DBD (Homo sapiens, UniProt P51587 1596-3418); test: EMSA
2XMBP-BRC1-8-DBD = 2XMBP-BRC1-8-DBD (Homo sapiens, UniProt P51587 993-3418); test: EMSA
2XMBP-BRCA2 DBD [1] = molecular target: T2, 2XMBP-BRCA2 DBD (Homo sapiens, UniProt P51587 2153-3418); test: EMSA
T2 sequence: T1 chain 2

2XMBP-BRC4-DBD = molecular target: T3, 2XMBP-BRC4-DBD (Homo sapiens, UniProt P51587;P51587 1496-1589;2153-3418); test: EMSA
T3 chain 1: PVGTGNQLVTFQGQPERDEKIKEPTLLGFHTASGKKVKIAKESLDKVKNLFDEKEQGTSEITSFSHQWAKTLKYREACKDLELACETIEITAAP
T3 chain 2: T1 chain 2

2XMBP-BRCA2 DBD [2] = molecular target: T2, 2XMBP-BRCA2 DBD; test: pull-down
RAD51;2XMBP-BRC1-4-DBD = RAD51;2XMBP-BRC1-4-DBD (Homo sapiens;Homo sapiens, UniProt Q06609;P51587;P51587 1-339;993-1589;2153-3418, |); test: pull-down
RAD51;2XMBP-BRC1-8-DBD = RAD51;2XMBP-BRC1-8-DBD (Homo sapiens;Homo sapiens, UniProt Q06609;P51587 1-339;993-3418, |); test: pull-down
RAD51;2XMBP-BRC5-8-DBD = RAD51;2XMBP-BRC5-8-DBD (Homo sapiens;Homo sapiens, UniProt Q06609;P51587 1-339;1596-3418, |); test: pull-down

Measured: binding result

RAD51;2XMBP-BRC1-8-DBD, sequence (Q06609 whole entry, one chain of several): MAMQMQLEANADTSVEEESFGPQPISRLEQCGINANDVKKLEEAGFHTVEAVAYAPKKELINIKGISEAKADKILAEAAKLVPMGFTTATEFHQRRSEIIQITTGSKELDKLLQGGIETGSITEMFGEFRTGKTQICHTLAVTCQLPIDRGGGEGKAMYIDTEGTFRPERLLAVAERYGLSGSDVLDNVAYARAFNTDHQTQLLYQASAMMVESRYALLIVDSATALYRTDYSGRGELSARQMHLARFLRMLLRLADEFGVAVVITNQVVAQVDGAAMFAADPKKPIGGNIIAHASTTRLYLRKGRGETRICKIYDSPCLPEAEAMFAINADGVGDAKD
RAD51;2XMBP-BRC5-8-DBD, sequence (Q06609 whole entry, one chain of several): as above
RAD51;2XMBP-BRC1-4-DBD, sequence (Q06609 whole entry, one chain of several): as above

B1: 3' tail DNA (RJ-167-mer / RJ-PHIX-42-1) (mixed)
DNA 1: CTGCTTTATCAAGATAATTTTTCGACTCATCAGAAATATCCGTTTCCTATATTTATTCCTATTATGTTTTATTCATTTACTTATTCTTTATGTTCATTTTTTATATCCTTTACTTTATTTTCTCTGTTTATTCATTTACTTATTTTGTATTATCCTTATCTTATTTA
DNA 2: CGGATATTTCTGATGAGTCGAAAAATTATCTTGATAAAGCAG
binds: 2XMBP-BRC1-4-DBD | 2XMBP-BRC5-8-DBD | 2XMBP-BRC1-8-DBD | 2XMBP-BRCA2 DBD [1] | 2XMBP-BRC4-DBD

B2: biotinylated ssDNA RJ-167-mer (ssDNA)
DNA: B1 DNA 1
binds: 2XMBP-BRCA2 DBD [2] | RAD51;2XMBP-BRC1-4-DBD | RAD51;2XMBP-BRC1-8-DBD | RAD51;2XMBP-BRC5-8-DBD

— publication PMC4914107 (Nucleic Acids Research, 2016)
